According to US20020147306A1 (published 2002):
No end group written: not given here.

T1: ephrin B1 Val deletion (UniProt P98172 28-346, limits assumed)
T1 construct: whole, on cells; Tested from lysates of transfected Cos-1 cells; also called ephrin B1 Val deletion mutant; ephrin B1 lacking the C-terminal Val
T1 sequence (looked up): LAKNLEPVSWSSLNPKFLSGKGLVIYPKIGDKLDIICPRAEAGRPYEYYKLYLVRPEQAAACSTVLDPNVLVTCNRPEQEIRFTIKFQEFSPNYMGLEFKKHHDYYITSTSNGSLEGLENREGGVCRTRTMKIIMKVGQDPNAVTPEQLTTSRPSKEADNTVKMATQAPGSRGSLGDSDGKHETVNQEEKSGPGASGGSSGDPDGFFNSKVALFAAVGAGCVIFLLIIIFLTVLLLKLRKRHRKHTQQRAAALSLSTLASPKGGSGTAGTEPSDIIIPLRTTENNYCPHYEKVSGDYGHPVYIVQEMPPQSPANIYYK

B1: fluorescein-labelled NIYYKV peptide (peptide)
peptide: NIYYKV
modifications: also: 5-(and-6-)carboxyfluorescein label, site not given here
notes: 25 nM probe in fluorescence polarization; also called unphosphorylated peptide probe
B2: GST-syntenin fusion protein (full length: residues 1-299) (other, mouse, UniProt O08992 1-299, looked up)
chain: MSLYPSLEDLKVDKVIQAQTAYSANPASQAFVLVDASAALPPDGNLYPKLYPELSQYMGLSLNEAEICESMPMVSGAPAQGQLVARPSSVNYMVAPVTGNDAGIRRAEIKQGIREVILCKDQDGKIGLRLKSIDNGIFVQLVQANSPASLVGLRFGDQVLQINGENCAGWSSDKAHKVLKQAFGEKITMTIRDRPFERTVTMHKDSSGHVGFIFKSGKITSIVKDSSAARNGLLTDHHICEINGQNVIGLKDAQIADILSTAGTVVTITIMPTFIFEHIIKRMAPSIMKSLMDHTIPEV
notes: range 1-299; also called full-length syntenin; GST fusion of full-length syntenin; not shown: glutathione S-transferase (GST) from vector pGEX4T2
B3: syntenin-FLAG (other, mouse, UniProt O08992 1-299, looked up, not shown: small tags and cut ends)
chain: B2 chain
notes: range 1-299; Co-expressed with ephrin B1 in Cos-1 cells

Assays:
[1] = target: B2; assay: fluorescence polarization, 25 nM fluorescein-labelled peptide, GST fusion titrated, 22 C
Protocol: (§1) FIGS. 5A and 5B. Fluorescence polarization analysis of GST-FAP-1 PDZ3, GST-FAP-1 PDZ5 and GST-syntenin binding to Fluorescein-labelled peptides corresponding to the C-terminus of ephrin B1. FIG. 5 A, Solutions containing the indicated final concentration of GST-FAP-1 PDZ3 ( ) or GST-FAP-1 PDZ5 ( ) fusion protein in mixtures containing 25 nM fluorescein-labelled NIYYKV peptide probe, 20 mM phosphate pH 7.0, 100 mM NaCl, and 2 mM dithiothreitol (DTT) were monitored for fluorescence polarization at 22° C. The GST-FAP-1 PDZ5 fusion protein was also measured for binding to the phosphorylated peptides, NIpYYKV ( ), NiYpYKV ( ) and NIpYpYKV ( ). […] FIG. 5B, A Binding of a GST fusion of full-length syntenin to the NIYYKV ( ), NIpYYKV ( ), and NIpYpYKV ( ) peptides as measured by fluorescence polarization.
(§2) Binding constant determination and peptide competition studies were carried out using fluorescence polarization on a Beacon 2000 Fluorescence Polarization System (Pan Vera, Wis.) equipped with a 100-μl sample chamber. Fluorescein-labeled probes were prepared through reaction of B ephrin C-terminal peptides with 5-(and-6-)-carboxyfluorescein, succinimidyl ester (Molecular Probes, Oreg.) and purified by reverse-phase HPLC. The authenticity of the fluorescein-labelled peptides were confirmed by mass spectroscopy. In the binding studies, the fluorescein-labelled peptide probe was dissolved in 20 mM phosphate pH 7.0, 100 mM NaCl, and 2 mM DTT to a concentration of 25 nM and a known quantity of GST- fusion protein added. The reaction mixtures were allowed to stand for 10 min at room temperature prior to each measurement. All fluorescence polarization measurements were conducted at 22° C.
(§3) Fluorescence polarization experiments measuring GST-syntenin fusion protein binding to fluorescein-labeled NIYYKV (SEQ. ID. NO. 10) and NIpYYKV (SEQ. ID. NO. 8) peptides yielded nearly identical binding curves (FIG. 5B).

[2] = target: T1, ephrin B1 Val deletion; assay: GST mix with lysates of transfected Cos-1 cells, anti-ephrin B1 immunoblot
Protocol: FIGS. 3A-C. FAP-1 PDZ5 and syntenin bind specifically to ephrin B1 in GST-mixes. Cos-1 cells were transiently transfected with either wild-type ephrin B1 (W. T.) or the ephrin B1 Val deletion (Val Δ) or were untransfected. Cell lysates were incubated with the GST fusion proteins as indicated and analyzed by immunoblotting with anti-ephrin B1 antibody. Immunoprecipitated ephrin B1 or ephrin B1 Val Δ were included as a positive control. FIG. 3A and FIG. 3B, GST-mixes with fusion proteins of FAP-1. C and D, GST-mixes with fusion proteins of syntenin.
(§4) Cos-1 cells were maintained in DMEM supplemented with 10% fetal bovine serum (FBS). Transient transfections were performed using Lipofectin reagent and Opti-MEM medium (Life Technologies Inc.) as outlined by the manufacturer. To reduce phosphorylation of ephrin B1 by binding to endogenously expressed EphB receptors or by stimulation with serum growth factors, transfected cells were transferred from 10 cm to 15 cm plates 24 h after transfection and serum starved in DMEM 0.5% FBS 12 h prior to cell lysis. Transfected cells were rinsed once in PBSA and lysed in PLC lysis buffer (5) with 10 μg/ml aprotonin, 10 μg/ml leupeptin, 1 mM sodium vanadate and 1 mM phenylmethylsulfonyl fluoride added. Immunoprecipitations were performed for 1 h at 4° C. using 1 μg anti-ephrin B1 antibody or 1 μg anti-IL-3 receptor a antibody with protein A-sepharose. […]

[3] = target: fluorescein-labelled NIpYpYKV peptide; assay: fluorescence polarization, 25 nM fluorescein-labelled peptide, GST fusion titrated, 22 C
Protocol: as §1, §2, §3

[4] = target: fluorescein-labelled NIpYYKV peptide; assay: as above
Protocol: as §1, §2, §3

[5] = target: T1, ephrin B1 Val deletion; assay: co-immunoprecipitation from co-transfected Cos-1 cells, anti-FLAG blot
Protocol: (§5) FIG. 6. Co-immunoprecipitation of syntenin-FLAG with ephrin B1. Cos-1 cells were co-transfected with either ephrin B1 and syntenin-FLAG or with the ephrin B1 Val deletion and syntenin-FLAG as indicated. Cell lysates were immunoprecipitated with antibodies against ephrin B1 or IL-3 receptor a or were treated with protein A sepharose only. Immunocomplexes were subjected to SDS-PAGE (10%) and blotted with anti-FLAG antibodies.
as §4

[6] = target: T2, protein A sepharose (UniProt P38507 37-477); assay: precipitation from Cos-1 cells co-transfected with ephrin B1 and syntenin-FLAG, anti-FLAG blot
T2 construct: Bead-only control in the co-immunoprecipitation; also called protein A sepharose alone
Protocol: as §5, §4

## B1
[1]
  Kd: 17.7 µM

## B2
[2]
  binding result: no binding
[3]
  Kd: 151 µM
[4]
  Kd: 15.4 µM

## B3
[5]
  binding result: no binding
[6]
  binding result: no binding
